Article PMC7612055 (Nature chemistry, 2021)

Biological target: proteasome αΔ12-subunit (Thermoplasma acidophilum, UniProt P25156 13-233)
Experiment: native gel or EMSA

Sequence of proteasome αΔ12-subunit (P25156 13-233, stated change not applied): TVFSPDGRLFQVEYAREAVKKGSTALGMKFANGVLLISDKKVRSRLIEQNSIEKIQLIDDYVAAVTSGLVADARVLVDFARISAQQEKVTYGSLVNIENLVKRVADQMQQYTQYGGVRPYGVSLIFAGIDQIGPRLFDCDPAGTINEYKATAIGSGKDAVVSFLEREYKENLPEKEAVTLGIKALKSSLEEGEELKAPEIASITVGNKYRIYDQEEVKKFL

B1: proteasome β-subunit (natural protein)
chain: TTTVGITLKDAVIMATERRVTMENFIMHKNGKKLFQIDTYTGMTIAGLVGDAQVLVRYMKAELELYRLQRRVNMPIEAVATLLSNMLNQVKYMPYMVQLLVGGIDTAPHVFSIDAAGGSVEDIYASTGSGSPFVYGVLESQYSEKMTVDEGVDLVIRAISAAKQRDSASGGMIDVAVITRKDGYVQLPTDQIESRIRKLGLIL
binding result: binds
